Data as given in US20120316071A1 (published 2012).

Columns and labels:
[1] = target: T1, rHuman CD44/Fc Chimera, CF (R&D Systems Cat#3660-CD) (human, UniProt P16070 21-220); test: ECL (MSD) multispot binding assay, antigen spotted on plate, 20 nM Fab;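 also: purified Fab incubated 1 h at 20 °C on antigen-spotted plate, bound Fab revealed with TAG detection antibody, ECL read, antigen signal divided by same-well blank, ratio ≥4 counted as hit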
T1 construct: Bought reagent; Fc part of the bought chimera not given

[2] = target: T2, rHuman P-Cadherin/Fc Chimera, CF (R&D Systems Cat#861-PC) (human, UniProt P22223 108-654); test: as above
T2 construct: Bought reagent; Fc part of the bought chimera not given

[3] = target: T3, rHuman ErbB2/Fc Chimera, CF (R&D Systems Cat#1129-ER) (human, UniProt P04626 23-652); test: as above
T3 construct: Bought reagent; also called human epidermal growth factor 2 receptor; Fc part of the bought chimera not given

[4] = target: T4, Recombinant Human DLL4 (R&D Systems Cat#1506-D4/CF) (human, UniProt Q9NR61 27-524); test: as above
T4 construct: Bought recombinant protein; also called delta-like protein 4; rHuman DLL4

[5] = target: T5, rHuman Erythropoietin R/Fc Chimera, CF (R&D Systems Cat#963-ER) (human, UniProt P19235 25-250); test: as above
T5 construct: Bought reagent; also called EPO R; EPO R/Fc; Fc part of the bought chimera not given
T5 sequence (looked up): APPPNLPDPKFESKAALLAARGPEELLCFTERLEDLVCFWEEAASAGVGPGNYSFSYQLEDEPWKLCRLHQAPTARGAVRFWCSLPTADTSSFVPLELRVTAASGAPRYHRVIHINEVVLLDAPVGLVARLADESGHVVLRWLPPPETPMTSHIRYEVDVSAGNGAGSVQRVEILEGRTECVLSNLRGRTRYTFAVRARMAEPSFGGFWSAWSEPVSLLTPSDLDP

[6] = target: T6, rHuman EGF R/Fc Chimera, CF (R&D Systems Cat#344-ER) (human, UniProt P00533 25-645); test: as above
T6 construct: Bought reagent; also called epidermal growth factor receptor; Fc part of the bought chimera not given

[7] = target: T7, rHuman IGF-1 sR, CF (R&D Systems Cat#391-GR) (human, UniProt P08069 31-932); test: as above
T7 construct: Bought soluble receptor; also called insulin-like growth factor-1 soluble receptor

[8] = target: T8, rHuman Notch-1/Fc Chimera, CF (R&D Systems Cat#3647-TK) (human, UniProt P46531 19-526); test: as above
T8 construct: Bought reagent; Fc part of the bought chimera not given

[9] = target: T9, Recombinant Human DLL4 (R&D Systems Cat#1506-D4/CF) (human, UniProt Q9NR61 27-529); test: 96-well plate ECL (MSD) assay, DLL4 coated on plate, Fab at 0.04 µM; ECL signal on DLL4 over signal on blank well
T9 construct: Bought recombinant protein; also called rHuman DLL4; delta-like protein 4

Binder	ECL multispot value [1]	ECL multispot value [2]	ECL multispot value [3]	ECL multispot value [4]	ECL multispot value [5]	ECL multispot value [6]	ECL multispot value [7]	ECL multispot value [8]	Signal/Noise [9]
Fab VH3-23_IGHD2-21*01>3_IGHJ6*01 H100E/S108P/Y113G Y114E & V2-13_IGLJ2*01 (Fab, V domains shown, Tested as Fab made in E. coli (VH-CH1 with His and Flag tags; lambda CL); also called EPG Y114E) VH: not shown VL: SSELTQDPAVSVALGQTVRITCQGDSLRSYYASWYQQKPGQAPVLVIYGKNNRPSGIPDRFSGSSSGNTASLTITGAQAEDEADYYCNSRDSSGNHLVVFGGGTKLTVL	1.5	13.9	7.4	2.2	69.2	6.8	1.5	–	–
Fab VH3-23_IGHD2-21*01>3_IGHJ6*01 H100E/S108P/Y113G Y112R & V2-13_IGLJ2*01 (Fab, V domains shown, Tested as Fab made in E. coli (VH-CH1 with His and Flag tags from plasmid A; lambda CL from plasmid E); also called EPG Y112R) VH: not shown VL: SSELTQDPAVSVALGQTVRITCQGDSLRSYYASWYQQKPGQAPVLVIYGKNNRPSGIPDRFSGSSSGNTASLTITGAQAEDEADYYCNSRDSSGNHLVVFGGGTKLTVL	1.6	30	5.9	2.6	85.1	–	1.5	2.7	–
Fab VH3-23_IGHD2-21*01>3_IGHJ6*01 H100E/S108P/Y113G Y114N & V2-13_IGLJ2*01 (Fab, V domains shown, Tested as Fab made in E. coli (VH-CH1 with His and Flag tags; lambda CL); also called EPG Y114N) VH: not shown VL: SSELTQDPAVSVALGQTVRITCQGDSLRSYYASWYQQKPGQAPVLVIYGKNNRPSGIPDRFSGSSSGNTASLTITGAQAEDEADYYCNSRDSSGNHLVVFGGGTKLTVL	1.2	5.9	–	1.6	35	2.6	1.2	2	–
Fab VH1-46_IGHD6-6*01_IGHJ1*01 E100A & L6_IGKJ1*01 (Fab, V domains shown, Heavy chain CDR3 alanine mutant of the parental Fab; Fab format as the parent (CH1 with His6/Flag tags, kappa CL)) VH: QVQLVQSGAEVKKPGASVKVSCKASGYTFTSYYMHWVRQAPGQGLEWMGIINPSGGSTSYAQKFQGRVTMTRDTSTSTVYMELSSLRSEDTAVYYCAREAYSSSSAEYFQHWGQGTLVTVSS VL: not shown	–	–	–	–	–	–	–	–	0.9
Fab VH1-46_IGHD6-6*01_IGHJ1*01 H111A & L6_IGKJ1*01 (Fab, V domains shown, Heavy chain CDR3 alanine mutant of the parental Fab; Fab format as the parent (CH1 with His6/Flag tags, kappa CL)) VH: QVQLVQSGAEVKKPGASVKVSCKASGYTFTSYYMHWVRQAPGQGLEWMGIINPSGGSTSYAQKFQGRVTMTRDTSTSTVYMELSSLRSEDTAVYYCAREEYSSSSAEYFQAWGQGTLVTVSS VL: not shown	–	–	–	–	–	–	–	–	2.4
Fab VH1-46_IGHD6-6*01_IGHJ1*01 S102A & L6_IGKJ1*01 (Fab, V domains shown, Heavy chain CDR3 alanine mutant of the parental Fab; Fab format as the parent (CH1 with His6/Flag tags, kappa CL)) VH: QVQLVQSGAEVKKPGASVKVSCKASGYTFTSYYMHWVRQAPGQGLEWMGIINPSGGSTSYAQKFQGRVTMTRDTSTSTVYMELSSLRSEDTAVYYCAREEYASSSAEYFQHWGQGTLVTVSS VL: not shown	–	–	–	–	–	–	–	–	5.6
Fab VH1-46_IGHD6-6*01_IGHJ1*01 S103A & L6_IGKJ1*01 (Fab, V domains shown, Heavy chain CDR3 alanine mutant of the parental Fab; Fab format as the parent (CH1 with His6/Flag tags, kappa CL)) VH: QVQLVQSGAEVKKPGASVKVSCKASGYTFTSYYMHWVRQAPGQGLEWMGIINPSGGSTSYAQKFQGRVTMTRDTSTSTVYMELSSLRSEDTAVYYCAREEYSASSAEYFQHWGQGTLVTVSS VL: not shown	–	–	–	–	–	–	–	–	3.5
